Source: PMC10503714

Target: stressed NISTmAb monoclonal antibody
Assay: AUC; sedimentation velocity at 50,000 rpm and 20°C; c(s) analysis in SEDFIT, by command line operation and repeated by manual operation on the same data; stressed, partially denatured sample

percent of signal in higher aggregates (command line analysis): 51.8% | percent of signal in higher aggregates (manual analysis): 51.7% | percent of signal in the dimer peak: 12.5% | stoichiometry N: 2
Substance: stressed NISTmAb monoclonal antibody
